{
  "source": "IntAct's records for PubMed 20059542",
  "parents": {"B1": {"name": "UV excision repair protein RAD23 (Saccharomyces cerevisiae), P32628 (parent)", "chain": "MVSLTFKNFKKEKVPLDLEPSNTILETKTKLAQSISCEESQIKLIYSGKVLQDSKTVSECGLKDGDQVVFMVSQKKSTKTKVTEPPIAPESATTPGRENSTEASPSTDASAAPAATAPEGSQPQEEQTATTERTESASTPGFVVGTERNETIERIMEMGYQREEVERALRAAFNNPDRAVEYLLMGIPENLRQPEPQQQTAAAAEQPSTAATTAEQPAEDDLFAQAAQGGNASSGALGTTGGATDAAQGGPPGSIGLTVEDLLSLRQVVSGNPEALAPLLENISARYPQLREHIMANPEVFVSMLLEAVGDNMQDVMEGADDMVEGEDIEVTGEAAAAGLGQGEGEGSFQVDYTPEDDQAISRLCELGFERDLVIQVYFACDKNEEAAANILFSDHAD"}, "B2": {"name": "26S proteasome non-ATPase regulatory subunit 4 (Homo sapiens), P55036 (parent)", "chain": "MVLESTMVCVDNSEYMRNGDFLPTRLQAQQDAVNIVCHSKTRSNPENNVGLITLANDCEVLTTLTPDTGRILSKLHTVQPKGKITFCTGIRVAHLALKHRQGKNHKMRIIAFVGSPVEDNEKDLVKLAKRLKKEKVNVDIINFGEEEVNTEKLTAFVNTLNGKDGTGSHLVTVPPGPSLADALISSPILAGEGGAMLGLGASDFEFGVDPSADPELALALRVSMEEQRQRQEEEARRAAAASAAEAGIATTGTEDSDDALLKMTISQQEFGRTGLPDLSSMTEEEQIAYAMQMSLQGAEFGQAESADIDASSAMDTSEPAKEEDDYDVMQDPEFLQSVLENLPGVDPNNEAIRNAMGSLASQATKDGKKDKKEEDKK"}, "B3": {"name": "Ubiquitin domain-containing protein DSK2 (Saccharomyces cerevisiae), P48510 (parent)", "chain": "MSLNIHIKSGQDKWEVNVAPESTVLQFKEAINKANGIPVANQRLIYSGKILKDDQTVESYHIQDGHSVHLVKSQPKPQTASAAGANNATATGAAAGTGATPNMSSGQSAGFNPLADLTSARYAGYLNMPSADMFGPDGGALNNDSNNQDELLRMMENPIFQSQMNEMLSNPQMLDFMIQSNPQLQAMGPQARQMLQSPMFRQMLTNPDMIRQSMQFARMMDPNAGMGSAGGAASAFPAPGGDAPEEGSNTNTTSSSNTGNNAGTNAGTNAGANTAANPFASLLNPALNPFANAGNAASTGMPAFDPALLASMFQPPVQASQAEDTRPPEERYEHQLRQLNDMGFFDFDRNVAALRRSGGSVQGALDSLLNGDV"}, "B4": {"name": "Ubiquitin domain-containing protein DSK2b (Arabidopsis thaliana (Mouse-ear cress)), Q9SII8 (parent)", "chain": "MGGEGDSSQPQSGEGEAVAVNIRCSNGTKFSVKTSLDSTVESFKELVAQSSDVPANQQRLIYKGRILKDDQTLLSYGLQADHTIHMVRGSAPSSAPPPAPAASQTTAPSVTRGVGSDNSSNLGGASPGESLFPGLGFNPLGGGNAMSGLFGAGLPDLVQTQQQLAQNPNMIRDMMNTPAIQNLMNNPEFMRSMIMNNPQMRELVDRNPELGHVLNDPSILRQTLEAARNPELMREMMRNTDRAMSNIESMPEGFNMLRRMYENVQEPLMNATTMSGNAGNNTGSNPFAALLGNQGVTTQGSDASNNSSTPNAGTGTIPNANPLPNPWGATGGQTTAPGRTNVGGDARSPGLGGLGGLGSLGGLGGLGMLGADSPLGATPDASQLSQLLQNPAISQMMQSVFSNPQYMNQLMSLNPQLRSMLDSNPQLREMMQNPDFLRQFSSPEMMQQMMTLQQSLSQNRNTASQDAGQTGAATGNNGGLDLLMNMFGSLGAGGLSGTNQSNVPPEERYATQLQQLQEMGFYDRAENIRALLATNGNVNAAVERLLGSIGQ"}, "B5": {"name": "Ubiquitin domain-containing protein DSK2 (Saccharomyces cerevisiae), P48510 (parent)", "chain": "B3 chain", "partner": "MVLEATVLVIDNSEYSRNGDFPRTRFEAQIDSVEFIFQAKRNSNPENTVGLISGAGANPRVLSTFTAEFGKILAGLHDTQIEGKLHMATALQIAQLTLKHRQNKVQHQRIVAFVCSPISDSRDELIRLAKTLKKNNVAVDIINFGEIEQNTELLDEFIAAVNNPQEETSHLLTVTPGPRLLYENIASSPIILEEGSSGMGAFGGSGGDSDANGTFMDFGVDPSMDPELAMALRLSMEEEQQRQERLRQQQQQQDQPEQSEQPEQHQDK"}},
  "data": [
    {"variants_of": "B1", "details": "with ubc_human UBC", "values": [
      {"variant": "M158A;G159A;Y160A", "effect of a mutation on the interaction": "disrupting interaction strength"},
      {"variant": "L367A;G368A;F369A", "effect of a mutation on the interaction": "with no effect"},
      {"variant": "M158A;G159A;Y160A;L367A;G368A;F369A", "effect of a mutation on the interaction": "disrupting interaction strength"}
    ]},
    {"variants_of": "B1", "details": "with ubc_human UBC", "remark": "another data set of the same source", "values": [
      {"variant": "M158A;G159A;Y160A", "effect of a mutation on the interaction": "decreasing interaction strength"}
    ]},
    {"variants_of": "B2", "details": "with ubql1_human UBQLN1, Q9UMX0", "values": [
      {"variant": "L216N;A217N;L218N;A219N;L220N", "effect of a mutation on the interaction": "decreasing interaction strength"},
      {"variant": "L216N;A217N;L218N;A219N;L220N;I287N;A288N;Y289N;A290N;M291N", "effect of a mutation on the interaction": "disrupting interaction strength"},
      {"variant": "I287N;A288N;Y289N;A290N;M291N", "effect of a mutation on the interaction": "disrupting interaction strength"}
    ]},
    {"variants_of": "B2", "details": "with ubql2_human UBQLN2, Q9UHD9", "values": [
      {"variant": "L216N;A217N;L218N;A219N;L220N", "effect of a mutation on the interaction": "with no effect"},
      {"variant": "L216N;A217N;L218N;A219N;L220N;I287N;A288N;Y289N;A290N;M291N", "effect of a mutation on the interaction": "disrupting interaction strength"},
      {"variant": "I287N;A288N;Y289N;A290N;M291N", "effect of a mutation on the interaction": "disrupting interaction strength"}
    ]},
    {"variants_of": "B2", "details": "with dsk2_yeast DSK2, P48510", "values": [
      {"variant": "L216N;A217N;L218N;A219N;L220N", "effect of a mutation on the interaction": "disrupting interaction strength"},
      {"variant": "L216N;A217N;L218N;A219N;L220N;I287N;A288N;Y289N;A290N;M291N", "effect of a mutation on the interaction": "disrupting interaction strength"},
      {"variant": "I287N;A288N;Y289N;A290N;M291N", "effect of a mutation on the interaction": "with no effect"}
    ]},
    {"variants_of": "B2", "details": "with rd23b_human RAD23B", "values": [
      {"variant": "L216N;A217N;L218N;A219N;L220N", "effect of a mutation on the interaction": "decreasing interaction strength"},
      {"variant": "L216N;A217N;L218N;A219N;L220N;I287N;A288N;Y289N;A290N;M291N", "effect of a mutation on the interaction": "disrupting interaction strength"},
      {"variant": "I287N;A288N;Y289N;A290N;M291N", "effect of a mutation on the interaction": "disrupting interaction strength"}
    ]},
    {"variants_of": "B3", "details": "with ubc_human UBC", "values": [
      {"variant": "M342A;G343A", "effect of a mutation on the interaction": "disrupting interaction strength"}
    ]},
    {"variants_of": "B4", "details": "with rpn13_arath RPN13, O48726", "values": [
      {"variant": "I61A", "effect of a mutation on the interaction": "disrupting interaction"}
    ]},
    {"variants_of": "B5", "details": "with rpn10_yeast RPN10, P38886", "values": [
      {"variant": "L44A", "effect of a mutation on the interaction": "with no effect"},
      {"variant": "V71A", "effect of a mutation on the interaction": "with no effect"},
      {"variant": "I45A", "effect of a mutation on the interaction": "with no effect"},
      {"variant": "L44A;I45A", "effect of a mutation on the interaction": "disrupting interaction strength"}
    ]},
    {"variants_of": "B5", "details": "with rpn10_yeast RPN10, P38886", "remark": "another data set of the same source", "values": [
      {"variant": "V71A", "effect of a mutation on the interaction": "disrupting interaction"}
    ]}
  ]
}
